Measured values: patent US20240287172A1 (SCIRHOM, published 2024)

T1: hiR2-FL-L589P-T7 (human, UniProt Q6PJF5 1-856)
T1 sequence: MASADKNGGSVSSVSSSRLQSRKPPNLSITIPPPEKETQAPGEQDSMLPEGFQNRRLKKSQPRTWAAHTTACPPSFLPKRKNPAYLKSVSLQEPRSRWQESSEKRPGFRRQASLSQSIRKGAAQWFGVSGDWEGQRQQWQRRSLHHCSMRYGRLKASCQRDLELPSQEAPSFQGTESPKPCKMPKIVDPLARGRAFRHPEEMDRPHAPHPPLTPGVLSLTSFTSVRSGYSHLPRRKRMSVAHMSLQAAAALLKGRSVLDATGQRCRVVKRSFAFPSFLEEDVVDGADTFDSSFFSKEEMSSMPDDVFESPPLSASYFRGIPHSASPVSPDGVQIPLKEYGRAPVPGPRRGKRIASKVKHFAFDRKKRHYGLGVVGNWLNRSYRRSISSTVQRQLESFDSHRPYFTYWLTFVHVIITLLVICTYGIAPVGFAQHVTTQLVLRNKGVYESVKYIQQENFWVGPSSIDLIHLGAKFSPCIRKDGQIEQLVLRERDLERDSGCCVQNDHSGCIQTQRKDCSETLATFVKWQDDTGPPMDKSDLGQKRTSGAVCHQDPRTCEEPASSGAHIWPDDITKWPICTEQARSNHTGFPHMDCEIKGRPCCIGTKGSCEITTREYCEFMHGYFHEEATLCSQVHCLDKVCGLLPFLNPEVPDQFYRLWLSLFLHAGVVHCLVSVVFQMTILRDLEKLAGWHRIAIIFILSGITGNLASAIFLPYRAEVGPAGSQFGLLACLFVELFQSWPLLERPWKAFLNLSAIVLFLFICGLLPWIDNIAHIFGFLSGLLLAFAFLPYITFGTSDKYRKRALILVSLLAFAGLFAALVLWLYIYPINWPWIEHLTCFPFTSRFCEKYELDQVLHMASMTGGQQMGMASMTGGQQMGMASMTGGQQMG

B1: antibody 48 (antibody, V domains shown)
VH: QVQLQQSGTELVRPGTSVKVSCKASGYAFTNYLIEWVKQRPGQGLEWIGVINPGSGFTKYNEKFKGKATLTADKSSSTVYMHLSSLTSEDSAVYFCARGLYRAMDYWGQGTSVTVSS
VL: DIQMTQSPASQSASLGESVTITCLASQTIATWLAWYQQKPGKSPQLLIYGATTLADGVPSRFSGGGSGTKFSFKISSLQAEDFVSYYCQQLYSTPYTFGGGTKLEIK
notes: mouse IgG, kappa light chain; also called clone #48; purified antibody 48
B2: antibody 50 (antibody, V domains shown)
VH: QVQLQQSGAELVRPGASVKVSCKASGYAFSNYLIEWVKQRPGQGLEWIGVINPGSGFTKYNEKFKGKATLTADKSSSTAYMQLSSLTSEDSAVYFCARGLYRAMDYWGQGTSVTVSS
VL: DIQMTQSPASQSASLGESVTITCLASQTIGTWLAWYQQKPGKSPQLLIYAAASLADGVPSRFSGGGSGTKFSFKISSLQAEDFVNYYCQQIYSTPYTFGGGTKLEIK
notes: mouse IgG, kappa light chain; also called clone #50; purified antibody 50

Molecular target: T1, hiR2-FL-L589P-T7
Assay: FACS, MEF-DKO cells, 3 µg/ml
In short: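 Binding read by flow cytometry after a PE goat anti-mouse IgG F(ab′)2 secondary (1:100, on ice, 1 h, dark). Before that, immortalized MEF-DKO lines carrying single-mutant hiR2-FL-T7 constructs were incubated 1 h on ice with 3 μg/ml antibody or FACS buffer alone.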

| Binder | loss of binding vs wild type |
| --- | --- |
| B1 | ≥ 60% |
| B2 | ≥ 95% |
